According to patent publication US20100260754A1 (Eli Lilly, published 2010):

How the values were obtained:
[1] = biological target: T1, rat Dkk-1 (SEQ ID NO: 31) (rat, UniProt O54908 32-272 (mouse entry), limits assumed); assay: cell-based or functional assay
T1 chain: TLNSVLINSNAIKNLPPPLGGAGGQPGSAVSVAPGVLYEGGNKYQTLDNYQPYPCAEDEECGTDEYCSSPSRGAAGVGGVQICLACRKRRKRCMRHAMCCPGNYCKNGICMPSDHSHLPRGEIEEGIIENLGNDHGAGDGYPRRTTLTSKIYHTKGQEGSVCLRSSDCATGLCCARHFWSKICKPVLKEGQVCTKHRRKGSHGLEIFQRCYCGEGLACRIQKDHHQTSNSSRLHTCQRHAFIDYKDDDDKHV

[2] = biological target: T2, human DKK-1 (SEQ ID NO: 29) (human, UniProt O94907 32-266); assay: cell-based or functional assay
T2 sequence: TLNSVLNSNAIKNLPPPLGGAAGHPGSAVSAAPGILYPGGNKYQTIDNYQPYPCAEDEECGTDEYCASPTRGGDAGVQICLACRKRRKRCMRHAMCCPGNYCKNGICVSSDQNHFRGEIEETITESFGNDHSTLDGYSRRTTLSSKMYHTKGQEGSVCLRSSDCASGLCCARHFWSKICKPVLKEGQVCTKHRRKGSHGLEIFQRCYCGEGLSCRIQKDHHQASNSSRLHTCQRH

[3] = biological target: T3, rabbit DKK-1 (SEQ ID NO: 32) (rabbit, UniProt O94907 32-265 (human entry), limits assumed); assay: cell-based or functional assay
T3 chain: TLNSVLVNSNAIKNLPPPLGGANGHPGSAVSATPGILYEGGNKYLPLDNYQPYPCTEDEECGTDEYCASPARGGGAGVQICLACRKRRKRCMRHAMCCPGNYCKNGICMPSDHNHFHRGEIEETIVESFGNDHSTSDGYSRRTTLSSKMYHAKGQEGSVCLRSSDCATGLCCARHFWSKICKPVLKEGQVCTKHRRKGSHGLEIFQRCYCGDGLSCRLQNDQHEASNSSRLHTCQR

[4] = biological target: T4, cynomolgus DKK-1 (SEQ ID NO: 30) (cynomolgus, UniProt O94907 32-265 (human entry), limits assumed); assay: cell-based or functional assay
T4 chain: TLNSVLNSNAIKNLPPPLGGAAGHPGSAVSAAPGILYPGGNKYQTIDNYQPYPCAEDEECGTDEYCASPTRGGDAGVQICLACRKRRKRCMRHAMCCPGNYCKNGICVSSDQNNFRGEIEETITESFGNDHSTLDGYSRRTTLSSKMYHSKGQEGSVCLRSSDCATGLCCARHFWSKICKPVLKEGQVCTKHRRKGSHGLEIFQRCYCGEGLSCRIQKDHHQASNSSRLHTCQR

[5] = biological target: T1, rat Dkk-1 (SEQ ID NO: 31); assay: KinExA solution equilibrium, 37 C, His-tagged DKK-1
Method: (§1) To establish a binding equilibrium, a constant concentration of antibody is mixed with varying concentrations of His-tagged DKK-1 (SEQ ID NO:29, SEQ ID NO:30, SEQ ID NO:31, SEQ ID NO:32, or SEQ ID NO:33) (1 nM-1 pM range) in PBS (pH 7.4)+1 mg/mL bovine serum albumin (“BSA”) or buffer alone and incubated for several days at 37° C. Two sets of binding reactions are set up, one set at low concentration of antibody (3 pM) and one set at high concentration of antibody (30 or 50 pM).
(§2) After establishing equilibrium, a KinExA 3000 instrument (Sapidyne Inst. Inc.) is used to probe for the fraction of ‘free’ (unbound) antibody. Briefly, His-tagged DKK-1 is covalently coupled to NHS-activated Sepharose 4 Fast Flow beads (GE Healthcare) which are packed by the instrument to create a small column. The pre-equilibrated mixtures of antibody+His-tagged DKK-1 are passed over the beads to capture only free antibody. The amount of free antibody captured is proportional to the free concentration in the equilibrated samples, and is detected by injection of a fluorescently labeled secondary antibody. Data sets from low and high concentrations of antibody are fit globally using n-curve analysis in the KinExA software. This fitting returns a Kd value as well as the 95% confidence interval.

[6] = biological target: T2, human DKK-1 (SEQ ID NO: 29); assay: as above
Method: as §1, §2

[7] = biological target: T3, rabbit DKK-1 (SEQ ID NO: 32); assay: as above
Method: as §1, §2

[8] = biological target: T5, mouse DKK-1 (SEQ ID NO: 33) (mouse, UniProt O54908 32-272); assay: as above
T5 construct: also called His-tagged DKK-1; Murine
T5 sequence: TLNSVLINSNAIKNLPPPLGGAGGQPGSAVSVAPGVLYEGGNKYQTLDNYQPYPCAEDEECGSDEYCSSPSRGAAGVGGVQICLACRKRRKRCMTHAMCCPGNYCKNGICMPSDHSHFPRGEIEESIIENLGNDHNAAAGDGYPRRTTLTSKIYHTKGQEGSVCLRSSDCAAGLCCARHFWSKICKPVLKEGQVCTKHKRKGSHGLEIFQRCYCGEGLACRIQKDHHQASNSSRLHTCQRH
Method: as §1, §2

[9] = biological target: T4, cynomolgus DKK-1 (SEQ ID NO: 30); assay: as above
Method: as §1, §2

- EC50, block of DKK-1-mediated inhibition of alkaline phosphatase in C2C12 cells [1]: 2900 pM
- EC50, block of DKK-1-mediated inhibition of alkaline phosphatase in C2C12 cells [2]: 9800 pM
- EC50, block of DKK-1-mediated inhibition of alkaline phosphatase in C2C12 cells [3]: 6000 pM
- EC50, block of DKK-1-mediated inhibition of alkaline phosphatase in C2C12 cells [4]: 6400 pM
- Kd [5]: 8.4 pM
- Kd [6]: 3.3 pM
- Kd [7]: 17 pM
- Kd [8]: 7 pM
- Kd [9]: 14 pM
B1: Antibody II (antibody, human IgG4 S228P, kappa, F234A L235A, V domains shown)
VH: EVQLVESGGGLVQPGGSLRLSCAASGFTFSSYTMSWVRQAPGKGLEWVATISGGGFGTYYPDSVKGRFTISRDNAKNSLYLQMNSLRAEDTAVYYCARPGYNNYYFDIWGQGTTVTVSS
VL: EIVLTQSPATLSLSPGERATLSCHASDSISNSLHWYQQKPGQAPRLLIYYARQSIQGIPARFSGSGSGTDFTLTISSLEPEDFAVYYCQQSESWPLHFGGGTKVEIKR
notes: also called human engineered DKK-1 antibody
